Experimental findings from article PMC5180592 (Science (New York, N.Y.), 2015) are described below.

The chains are these.
B1: Nup85 (natural protein, S. cerevisiae, UniProt P46673 1-744, looked up)
chain: MTIDDSNRLLMDVDQFDFLDDGTAQLSNNKTDEEEQLYKRDPVSGAILVPMTVNDQPIEKNGDKMPLKFKLGPLSYQNMAFITAKDKYKLYPVRIPRLDTSKEFSAYVSGLFEIYRDLGDDRVFNVPTIGVVNSNFAKEHNATVNLAMEAILNELEVFIGRVKDQDGRVNRFYELEESLTVLNCLRTMYFILDGQDVEENRSEFIESLLNWINRSDGEPDEEYIEQVFSVKDSTAGKKVFETQYFWKLLNQLVLRGLLSQAIGCIERSDLLPYLSDTCAVSFDAVSDSIELLKQYPKDSSSTFREWKNLVLKLSQAFGSSATDISGELRDYIEDFLLVIGGNQRKILQYSRTWYESFCGFLLYYIPSLELSAEYLQMSLEANVVDITNDWEQPCVDIISGKIHSILPVMESLDSCTAAFTAMICEAKGLIENIFEGEKNSDDYSNEDNEMLEDLFSYRNGMASYMLNSFAFELCSLGDKELWPVAIGLIALSATGTRSAKKMVIAELLPHYPFVTNDDIEWMLSICVEWRLPEIAKEIYTTLGNQMLSAHNIIESIANFSRAGKYELVKSYSWLLFEASCMEGQKLDDPVLNAIVSKNSPAEDDVIIPQDILDCVVTNSMRQTLAPYAVLSQFYELRDREDWGQALRLLLLLIEFPYLPKHYLVLLVAKFLYPIFLLDDKKLMDEDSVATVIEVIETKWDDADEKSSNLYETIIEADKSLPSSMATLLKNLRKKLNFKLCQAFM
B2: Seh1 (natural protein, S. cerevisiae)
chain: MQPFDSGHDDLVHDVVYDFYGRHVATCSSDQHIKVFKLDKDTSNWELSDSWRAHDSSIVAIDWASPEYGRIIASASYDKTVKLWEEDPDQEECSGRRWNKLCTLNDSKGSLYSVKFAPAHLGLKLACLGNDGILRLYDALEPSDLRSWTLTSEMKVLSIPPANHLQSDFCLSWCPSRFSPEKLAVSALEQAIIYQRGKDGKLHVAAKLPGHKSLIRSISWAPSIGRWYQLIATGCKDGRIRIFKITEKLSPLASEESLTNSNMFDNSADVDMDAQGRSDSNTEEKAELQSNLQVELLSEHDDHNGEVWSVSWNLTGTILSSAGDDGKVRLWKATYSNEFKCMSVITAQQ
B3: Nup85 C-terminal domain (domain or fragment, S. cerevisiae, UniProt P46673 545-744, looked up)
chain: QMLSAHNIIESIANFSRAGKYELVKSYSWLLFEASCMEGQKLDDPVLNAIVSKNSPAEDDVIIPQDILDCVVTNSMRQTLAPYAVLSQFYELRDREDWGQALRLLLLLIEFPYLPKHYLVLLVAKFLYPIFLLDDKKLMDEDSVATVIEVIETKWDDADEKSSNLYETIIEADKSLPSSMATLLKNLRKKLNFKLCQAFM
B4: synthetic antibody sAB-57 (Fab, V domains shown)
VH: EVQLVESGGGLVQPGGSLRLSCAASGFNVSYSSIHWVRQAPGKGLEWVASIYPYYGSTSYADSVKGRFTISADTSKNTAYLQMNSLRAEDTAVYYCARTGMYFGFFHHSWSNAALDYWGQGTLVTVSS
VL: DIQMTQSPSSLSASVGDRVTITCRASQSVSSAVAWYQQKPGKAPKLLIYSASSLYSGVPSRFSGSRSGTDFTLTISSLQPEDFATYYCQQISQYPITFGQGTKVEIK

Experiment [1] has as its target T1, Nup120 (S. cerevisiae, UniProt P35729 1-1037).
T1 sequence: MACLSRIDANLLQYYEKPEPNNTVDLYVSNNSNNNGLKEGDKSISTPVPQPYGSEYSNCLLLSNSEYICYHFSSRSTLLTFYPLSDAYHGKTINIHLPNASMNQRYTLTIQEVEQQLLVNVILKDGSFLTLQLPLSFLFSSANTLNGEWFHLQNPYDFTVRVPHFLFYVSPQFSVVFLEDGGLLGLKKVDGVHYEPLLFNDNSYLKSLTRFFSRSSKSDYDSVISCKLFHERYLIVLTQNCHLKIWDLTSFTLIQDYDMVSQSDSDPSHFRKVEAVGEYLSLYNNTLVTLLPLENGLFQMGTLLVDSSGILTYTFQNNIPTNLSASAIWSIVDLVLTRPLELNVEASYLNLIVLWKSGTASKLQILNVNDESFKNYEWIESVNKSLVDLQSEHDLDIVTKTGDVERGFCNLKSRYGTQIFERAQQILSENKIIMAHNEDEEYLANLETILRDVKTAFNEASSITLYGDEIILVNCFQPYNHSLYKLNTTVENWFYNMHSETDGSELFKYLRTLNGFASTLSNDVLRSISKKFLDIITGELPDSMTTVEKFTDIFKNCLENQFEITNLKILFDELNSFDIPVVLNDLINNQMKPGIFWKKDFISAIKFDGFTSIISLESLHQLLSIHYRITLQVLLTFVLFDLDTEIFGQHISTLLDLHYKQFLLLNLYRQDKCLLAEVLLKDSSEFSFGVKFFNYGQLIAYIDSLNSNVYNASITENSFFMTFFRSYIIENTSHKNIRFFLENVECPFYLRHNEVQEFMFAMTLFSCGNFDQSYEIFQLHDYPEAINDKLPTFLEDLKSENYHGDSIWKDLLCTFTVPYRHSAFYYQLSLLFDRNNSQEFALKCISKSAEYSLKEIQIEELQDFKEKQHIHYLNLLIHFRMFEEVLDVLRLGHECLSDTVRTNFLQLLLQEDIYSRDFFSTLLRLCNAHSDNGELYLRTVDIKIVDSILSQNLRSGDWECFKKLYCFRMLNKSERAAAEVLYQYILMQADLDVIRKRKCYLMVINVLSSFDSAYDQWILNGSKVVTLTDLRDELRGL
Briefly: crystal structure.

In experiment [2] the target is B1. Briefly: crystal structure.
The target in experiment [3] is T1, Nup120. Briefly: SEC.
Experiment [4] addresses Nup85 (S. cerevisiae, UniProt P46673). Briefly: crystal structure.
In experiment [5] the target is Nup145C (S. cerevisiae, UniProt P49687). Briefly: crystal structure.
Chain of Nup145C (P49687 680-1317): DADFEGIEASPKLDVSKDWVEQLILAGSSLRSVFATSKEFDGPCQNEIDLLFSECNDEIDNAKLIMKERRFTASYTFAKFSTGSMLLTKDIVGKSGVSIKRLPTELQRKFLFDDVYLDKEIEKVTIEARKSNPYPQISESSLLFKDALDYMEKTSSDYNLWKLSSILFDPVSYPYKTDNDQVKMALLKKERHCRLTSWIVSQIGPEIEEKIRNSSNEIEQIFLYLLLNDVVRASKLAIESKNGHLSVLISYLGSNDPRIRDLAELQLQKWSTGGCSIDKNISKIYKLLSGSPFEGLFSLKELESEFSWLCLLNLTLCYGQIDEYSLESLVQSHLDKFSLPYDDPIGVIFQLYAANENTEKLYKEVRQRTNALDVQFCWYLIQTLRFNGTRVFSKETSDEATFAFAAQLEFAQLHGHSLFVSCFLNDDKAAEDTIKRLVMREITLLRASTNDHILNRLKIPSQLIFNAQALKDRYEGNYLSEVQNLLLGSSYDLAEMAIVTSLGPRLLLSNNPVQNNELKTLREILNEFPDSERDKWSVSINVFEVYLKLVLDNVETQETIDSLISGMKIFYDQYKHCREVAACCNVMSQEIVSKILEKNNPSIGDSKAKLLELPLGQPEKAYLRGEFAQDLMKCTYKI

For B1, in experiment [1], the binding result is “binds”.
Consider B2, for which the binding result in experiment [2] is reported as “binds”.
For the molecule B3, the binding result in experiment [3] is “binds”.
In the case of B4, the binding result in experiment [4] and in experiment [5] was “binds” in each case.
